B1: P0DPH8 (protein, UniProt P0DPH8 1-450, looked up)
chain: MRECISIHVGQAGVQIGNACWELYCLEHGIQPDGQMPSDKTIGGGDDSFNTFFSETGAGKHVPRAVFVDLEPTVVDEVRTGTYRQLFHPEQLITGKEDAANNYARGHYTIGKEIVDLVLDRIRKLADLCTGLQGFLIFHSFGGGTGSGFASLLMERLSVDYGKKSKLEFAIYPAPQVSTAVVEPYNSILTTHTTLEHSDCAFMVDNEAIYDICRRNLDIERPTYTNLNRLIGQIVSSITASLRFDGALNVDLTEFQTNLVPYPRIHFPLATYAPVISAEKAYHEQLSVAEITNACFEPANQMVKCDPRHGKYMACCMLYRGDVVPKDVNAAIATIKTKRTIQFVDWCPTGFKVGINYQPPTVVPGGDLAKVQRAVCMLSNTTAIAEAWARLDHKFDLMYAKRAFVHWYVGEGMEEGEFSEAREDLAALEKDYEEVGVDSVEAEAEEGEEY
modifications: full-length
B2: Q9UM07 (protein)
chain: MAQGTLIRVTPEQPTHAVCVLGTLTQLDICSSAPEDCTSFSINASPGVVVDIAHGPPAKKKSTGSSTWPLDPGVEVTLTMKVASGSTGDQKVQISYYGPKTPPVKALLYLTGVEISLCADITRTGKVKPTRAVKDQRTWTWGPCGQGAILLVNCDRDNLESSAMDCEDDEVLDSEDLQDMSLMTLSTKTPKDFFTNHTLVLHVARSEMDKVRVFQATRGKLSSKCSVVLGPKWPSHYLMVPGGKHNMDFYVEALAFPDTDFPGLITLTISLLDTSNLELPEAVVFQDSVVFRVAPWIMTPNTQPPQEVYACSIFENEDFLKSVTTLAMKAKCKLTICPEEENMDDQWMQDEMEIGYIQAPHKTLPVVFDSPRNRGLKEFPIKRVMGPDFGYVTRGPQTGGISGLDSFGNLEVSPPVTVRGKEYPLGRILFGDSCYPSNDSRQMHQALQDFLSAQQVQAPVKLYSDWLSVGHVDEFLSFVPAPDRKGFRLLLASPRSCYKL
B3: P04003 (protein, UniProt P04003 1-597, looked up)
chain: MHPPKTPSGALHRKRKMAAWPFSRLWKVSDPILFQMTLIAALLPAVLGNCGPPPTLSFAAPMDITLTETRFKTGTTLKYTCLPGYVRSHSTQTLTCNSDGEWVYNTFCIYKRCRHPGELRNGQVEIKTDLSFGSQIEFSCSEGFFLIGSTTSRCEVQDRGVGWSHPLPQCEIVKCKPPPDIRNGRHSGEENFYAYGFSVTYSCDPRFSLLGHASISCTVENETIGVWRPSPPTCEKITCRKPDVSHGEMVSGFGPIYNYKDTIVFKCQKGFVLRGSSVIHCDADSKWNPSPPACEPNSCINLPDIPHASWETYPRPTKEDVYVVGTVLRYRCHPGYKPTTDEPTTVICQKNLRWTPYQGCEALCCPEPKLNNGEITQHRKSRPANHCVYFYGDEISFSCHETSRFSAICQGDGTWSPRTPSCGDICNFPPKIAHGHYKQSSSYSFFKEEIIYECDKGYILVGQAKLSCSYSHWSAPAPQCKALCRKPELVNGRLSVDKDQYVEPENVTIQCDSGYGVVGPQSITCSGNRTWYPEVPKCEWETPEGCEQVLTGKRLMQCLPNPEDVKMALEVYKLSLEIEQLELQRDSARQSTLDKEL
modifications: full-length
B4: C9JEU5 (protein)
chain: MSWSLHPRNLILYFYALLFLSSTCVAYVATRDNCCILDERFGSYCPTTCGIADFLSTYQTKVDKDLQSLEDILHQVENKTSEVKQLIKAIQLTYNPDESSKPNMIDAATLKSRKMLEEIMKYEASILTHDSSIRYLQEIYNSNNQKIVNLKEKVAQLEAQCQEPCKDTVQIHDITGKVKVDSPSLDCQDIANKGAKQSGLYFIKPLKANQQFLVYCEIDGSGNGWTVFQKRLDGSVDFKKNWIQYKEGFGHLSPTGTTEFWLGNEKIHLISTQSAIPYALRVELEDWNGRTSTADYAMFKVGPEADKYRLTYAYFAGGDAGDAFDGFDFGDDPSDKFFTSHNGMQFSTWDNDNDKFEGNCAEQDGSGWWMNKCHAGHLNGVYYQGGTYSKASTPNGYDNGIIWATWKTRWYSMKKTTMKIIPFNRLTIGEGQQHHLGGAKQAGDV
B5: Q9NSB2 (protein)
chain: MSCRSYRVSSGHRVGNFSSCSAMTPQNLNRFRANSVSCWSGPGFRGLGSFGSRSVITFGSYSPRIAAVGSRPIHCGVRFGAGCGMGFGDGRGVGLGPRADSCVGLGFGAGSGIGYGFGGPGFGYRVGGVGVPAAPSITAVTVNKSLLTPLNLEIDPNAQRVKKDEKEQIKTLNNKFASFIDKVRFLEQQNKLLETKWSFLQEQKCIRSNLEPLFESYITNLRRQLEVLVSDQARLQAERNHLQDVLEGFKKKYEEEVVCRANAENEFVALKKDVDAAFMNKSDLEANVDTLTQEIDFLKTLYMEEIQLLQSHISETSVIVKMDNSRDLNLDGIIAEVKAQYEEVARRSRADAEAWYQTKYEEMQVTAGQHCDNLRNIRNEINELTRLIQRLKAEIEHAKAQRAKLEAAVAEAEQQGEATLSDAKCKLADLECALQQAKQDMARQLCEYQELMNAKLGLDIEIATYRRLLEGEESRLCEGVGPVNISVSSSRGGLVCGPEP
B6: P03971 (protein, UniProt P03971 1-560, looked up)
chain: MRDLPLTSLALVLSALGALLGTEALRAEEPAVGTSGLIFREDLDWPPGSPQEPLCLVALGGDSNGSSSPLRVVGALSAYEQAFLGAVQRARWGPRDLATFGVCNTGDRQAALPSLRRLGAWLRDPGGQRLVVLHLEEVTWEPTPSLRFQEPPPGGAGPPELALLVLYPGPGPEVTVTRAGLPGAQSLCPSRDTRYLVLAVDRPAGAWRGSGLALTLQPRGEDSRLSTARLQALLFGDDHRCFTRMTPALLLLPRSEPAPLPAHGQLDTVPFPPPRPSAELEESPPSADPFLETLTRLVRALRVPPARASAPRLALDPDALAGFPQGLVNLSDPAALERLLDGEEPLLLLLRPTAATTGDPAPLHDPTSAPWATALARRVAAELQAAAAELRSLPGLPPATAPLLARLLALCPGGPGGLGDPLRALLLLKALQGLRVEWRGRDPRGPGRAQRSAGATAADGPCALRELSVDLRAERSVLIPETYQANNCQGVCGWPQSDRNPRYGNHVVLLLKMQVRGAALARPPCCVPTAYAGKLLISLSEERISAHHVPNMVATECGCR
modifications: full-length
B7: Q16610 (protein)
chain: MGTTARAALVLTYLAVASAASEGGFTATGQRQLRPEHFQEVGYAAPPSPPLSRSLPMDHPDSSQHGPPFEGQSQVQPPPSQEATPLQQEKLLPAQLPAEKEVGPPLPQEAVPLQKELPSLQHPNEQKEGTPAPFGDQSHPEPESWNAAQHCQQDRSQGGWGHRLDGFPPGRPSPDNLNQICLPNRQHVVYGPWNLPQSSYSHLTRQGETLNFLEIGYSRCCHCRSHTNRLECAKLVWEEAMSRFCEAEFSVKTRPHWCCTRQGEARFSCFQEEAPQPHYQLRACPSHQPDISSGLELPFPPGVPTLDNIKNICHLRRFRSVPRNLPATDPLQRELLALIQLEREFQRCCRQGNNHTCTWKAWEDTLDKYCDREYAVKTHHHLCCRHPPSPTRDECFARRAPYPNYDRDILTIDIGRVTPNLMGHLCGNQRVLTKHKHIPGLIHNMTARCCDLPFPEQACCAEEEKLTFINDLCGPRRNIWRDPALCCYLSPGDEQVNCFN

test system: PAD2 and PAD4; experiment: Citrullination site mapping of fibrinogen and vimentin by trypsin digestion and mass spectrometry (protein-level sheet, one search over native, PAD2-cit and PAD4-cit samples); format: biochemical, human; conditions: modified residues found per protein; Deamidated [R..] = deamidated (citrullinated) arginine positions; trypsin digest, Sequest HT; not split by sample (native, PAD2-citrullinated, PAD4-citrullinated fibrinogen and vimentin)
Text: Description: Raw mass spectrometry data for proteolytic mapping of fibrinogen, vimentin, and hnRNP A2/B1 by cathepsins B, S, and H (sheets 1-6); citrullination site mapping of fibrinogen and vimentin by trypsin digestion (sheets 7-8); and the natural antigen processing assay with native, PAD2-citrullinated (PAD2-cit), and PAD4-citrullinated (PAD4-cit) fibrinogen (sheets 9-11).

Row | Molecule | Modifications
1 | B1 | Deamidated [R64; R84; R105; R339; R373; R422]
2 | B2 | Deamidated [R123; R137; R156; R205; R212; R218; R372; R374; R383; R394; R419; R427; R441; R484; R488; R495; R536; R544; R550; R555; R609; R639; R650]
3 | B3 | Deamidated [R159; R329; R331; R485; R493]
4 | B4 | Deamidated [R113; R134; R281; R290; R309; R409; R425]
5 | B5 | Deamidated [R184]
6 | B6 | Deamidated [R499; R516; R522; R560]
7 | B7 | Deamidated [R171; R343]
